Measurements taken from PMC4609182.

Biological target: T1, Parkin R0RBR module (RING0, RING1, IBR, RING2), wild type (rat), Q9JK66
T1 chain: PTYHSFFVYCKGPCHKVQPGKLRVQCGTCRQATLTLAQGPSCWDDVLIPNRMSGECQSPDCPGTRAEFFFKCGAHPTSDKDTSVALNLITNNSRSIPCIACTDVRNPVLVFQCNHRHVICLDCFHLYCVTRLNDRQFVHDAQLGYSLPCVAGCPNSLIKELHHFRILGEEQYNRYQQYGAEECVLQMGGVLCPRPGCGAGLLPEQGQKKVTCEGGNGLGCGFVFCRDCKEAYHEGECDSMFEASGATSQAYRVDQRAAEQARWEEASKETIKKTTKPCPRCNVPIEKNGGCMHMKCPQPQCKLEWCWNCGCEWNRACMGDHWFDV
Experiment: ITC; R0RBR (wild type or L266K) titrated with Ubl or pUbl; 20°C; 50 mM Tris–HCl pH 7.4, 150 mM NaCl, 1 mM TCEP; stoichiometry determined experimentally

Kd: 16 µM
B1: Parkin Ubl domain (ubiquitin-like domain), unmodified (domain or fragment)
chain: MIVFVRFNSSYGFPVEVDSDTSIFQLKEVVAKRQGVPADQLRVIFAGKELQNHLTVQNCDLEQQSIVHIVQRPQRK
modifications: not checked
